From paper PMC9444072

Target: BK channel α subunit (hSloα1, human slow poke alpha subunit K+ channel) (human) (UniProt Q12791)
Test: native gel or EMSA; native SMA-PAGE (4-16% Tris/glycine gradient gel, 150 V, 1 h, room temperature) of Ni-NTA purified SMALPs from HEK293 membranes, followed by western blot with anti-hsloα, anti-hsloβ or anti-his antibodies; subunits co-expressed in cells and extracted together

Sequence of BK channel α subunit (hSloα1, human slow poke alpha subunit K+ channel), Q12791 1-1236 (natural protein; other documents disagree on this pair) (Q12791 whole entry): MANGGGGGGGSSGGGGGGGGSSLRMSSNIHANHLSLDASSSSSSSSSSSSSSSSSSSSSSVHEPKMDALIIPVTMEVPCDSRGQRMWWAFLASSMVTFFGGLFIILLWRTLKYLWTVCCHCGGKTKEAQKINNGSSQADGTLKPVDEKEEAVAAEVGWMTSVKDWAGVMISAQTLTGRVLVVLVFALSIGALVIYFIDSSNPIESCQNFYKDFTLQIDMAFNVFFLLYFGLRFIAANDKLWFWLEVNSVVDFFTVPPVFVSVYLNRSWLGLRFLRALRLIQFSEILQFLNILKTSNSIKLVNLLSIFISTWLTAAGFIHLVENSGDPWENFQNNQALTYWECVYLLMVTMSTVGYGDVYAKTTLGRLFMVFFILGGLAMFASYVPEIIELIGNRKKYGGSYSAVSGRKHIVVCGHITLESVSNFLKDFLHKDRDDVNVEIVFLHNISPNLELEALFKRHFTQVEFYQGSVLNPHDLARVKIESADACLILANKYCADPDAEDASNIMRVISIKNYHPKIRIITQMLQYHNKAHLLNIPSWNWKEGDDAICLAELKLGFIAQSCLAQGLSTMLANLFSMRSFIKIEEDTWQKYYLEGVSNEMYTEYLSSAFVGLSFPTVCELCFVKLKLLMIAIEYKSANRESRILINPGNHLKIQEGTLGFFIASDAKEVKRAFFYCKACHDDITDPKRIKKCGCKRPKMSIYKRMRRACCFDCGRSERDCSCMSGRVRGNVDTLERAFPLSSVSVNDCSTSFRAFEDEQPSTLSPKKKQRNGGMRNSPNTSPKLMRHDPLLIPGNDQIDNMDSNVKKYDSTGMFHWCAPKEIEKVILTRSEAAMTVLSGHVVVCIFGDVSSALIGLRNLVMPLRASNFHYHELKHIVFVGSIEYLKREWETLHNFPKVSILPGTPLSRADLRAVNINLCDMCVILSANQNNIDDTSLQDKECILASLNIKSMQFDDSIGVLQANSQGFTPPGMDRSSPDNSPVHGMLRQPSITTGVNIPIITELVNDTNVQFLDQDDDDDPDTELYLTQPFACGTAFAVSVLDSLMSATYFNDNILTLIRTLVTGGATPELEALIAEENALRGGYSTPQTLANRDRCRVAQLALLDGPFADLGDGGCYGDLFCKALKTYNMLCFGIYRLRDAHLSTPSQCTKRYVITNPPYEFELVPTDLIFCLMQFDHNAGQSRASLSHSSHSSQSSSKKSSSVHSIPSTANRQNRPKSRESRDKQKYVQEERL

BK channel α subunit (hSloα1, human slow poke alpha subunit K+ channel), Q12791 1-1236 (natural protein; other documents disagree on this pair)
stoichiometry N: 4
